Experimental data taken from publication PMC4005679, “In vitro assembly and activity of an archaeal CRISPR-Cas type I-A Cascade interference complex” (Nucleic Acids Research, 2014).

T1: Cas7 (Thermoproteus tenax Kra1, UniProt G4RJZ1 1-329)
T1 sequence: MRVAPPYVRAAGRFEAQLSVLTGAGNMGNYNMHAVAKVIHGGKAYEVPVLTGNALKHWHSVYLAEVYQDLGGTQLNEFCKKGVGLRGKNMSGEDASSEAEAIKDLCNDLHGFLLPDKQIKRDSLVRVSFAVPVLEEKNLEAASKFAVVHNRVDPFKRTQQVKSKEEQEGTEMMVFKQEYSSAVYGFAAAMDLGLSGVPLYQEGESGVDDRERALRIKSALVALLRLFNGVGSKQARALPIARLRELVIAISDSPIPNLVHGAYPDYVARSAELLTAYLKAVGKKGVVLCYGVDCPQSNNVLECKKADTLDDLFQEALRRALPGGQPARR

T2: Cas7 purified via a His-SUMO-tagged fusion protein (Thermoproteus tenax, UniProt G4RJZ1 1-329)
T2 construct: Cas7 of the type I-A Cascade of Thermoproteus tenax Kra1 (genome FN869859), full-length protein; also called Cas7-SUMO; monomeric Cas7; source: E. coli BL21-Gold(DE3)Star pRARE, purified (Ni-NTA, SUMO protease, HiTrap Heparin, Superdex 75)
T2 sequence (looked up): T1 sequence

T3: Cas5a (recombinant, refolded) (Thermoproteus tenax, UniProt G4RJZ2 1-226)
T3 construct: Cas5a of the type I-A Cascade of Thermoproteus tenax Kra1 (genome FN869859)
T3 sequence (looked up): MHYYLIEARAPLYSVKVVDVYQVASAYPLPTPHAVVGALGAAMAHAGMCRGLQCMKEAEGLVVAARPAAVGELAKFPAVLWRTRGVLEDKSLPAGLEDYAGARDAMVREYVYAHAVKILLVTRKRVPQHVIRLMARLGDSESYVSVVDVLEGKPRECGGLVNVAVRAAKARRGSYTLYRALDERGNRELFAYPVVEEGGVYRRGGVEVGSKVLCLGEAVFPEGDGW

T4: Cas8a2 (recombinant, refolded) (Thermoproteus tenax, UniProt G4RJZ5 1-361)
T4 construct: Cas8a2 of the type I-A Cascade of Thermoproteus tenax Kra1 (genome FN869859)
T4 sequence (looked up): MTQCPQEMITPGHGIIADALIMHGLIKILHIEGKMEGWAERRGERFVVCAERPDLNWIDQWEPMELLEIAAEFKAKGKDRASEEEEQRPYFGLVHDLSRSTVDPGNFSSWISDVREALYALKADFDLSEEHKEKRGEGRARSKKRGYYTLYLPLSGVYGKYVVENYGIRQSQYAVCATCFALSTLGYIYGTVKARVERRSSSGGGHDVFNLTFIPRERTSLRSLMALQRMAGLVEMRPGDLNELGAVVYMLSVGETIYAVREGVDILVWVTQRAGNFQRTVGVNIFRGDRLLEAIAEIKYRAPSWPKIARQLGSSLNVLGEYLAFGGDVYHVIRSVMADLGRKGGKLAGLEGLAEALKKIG

B1: Csa5 (recombinant, soluble) (natural protein, Thermoproteus tenax, UniProt G4RJZ0 1-130, looked up)
chain: MESVQLKKEELVERAARSVRPAVHLEMAYDVLDELSRSPEKYPEQLAKLSRIVVKVLNDVEDELEHNPQNEELQKARNRLAAWGGYVAELAKRLEEADDRERIRMVRLFCAMALAPDKLTVELKKLLKGR
notes: Csa5, subunit of the type I-A Cascade of Thermoproteus tenax Kra1 (genome FN869859); source: E. coli Rosetta2(DE3)pLysS, csa5 in pET24a(+), purified (heat precipitation 90°C, Hi Screen Blue FF, MonoQ)

What was measured:
Cas7 = biological target: T1, Cas7; experiment: EMSA; 4 uM Cas7, no competitor; nonspecific, similar shift with yeast RNA; 100 mM HEPES/KOH pH 7, 100 mM NaCl, 10 mM beta-mercaptoethanol, 50 ng yeast RNA, 30 min at 70 C (Cascade; 6% native TBE-PAGE); Cas7 alone without yeast RNA at 80 C, agarose gel; 2-4 nM labeled crRNA; conditions: protein: recombinant; tags: His-SUMO tag cleaved off; label: 5'-32P (EMSA); unlabeled in SEC; single strand
[1] = biological target: T2, Cas7 purified via a His-SUMO-tagged …; experiment: SEC; six co-refolded Cascade subunits, incubated 30 min at 65°C, Superdex 200 10/300; fractions TCA-precipitated and analysed by SDS-PAGE; conditions: both partners purified
[2] = biological target: T3, Cas5a (recombinant, refolded); experiment: as above; conditions: both partners purified
[3] = biological target: T4, Cas8a2 (recombinant, refolded); experiment: as above; conditions: both partners purified

Binder	binding result (Cas7)	binding result [1]	binding result [2]	binding result [3]
AUUGAAAGCGUUGAUGCGGCCGCGACUGGCUGACUCAGCUAUUACGUUGA (ssRNA, 5'-OH from hammerhead cleavage before labeling) [crRNA 5.2]	binds			
B1		binds	binds	binds
